Three molecules from patent US20140271661A1 (published 2014) can be followed below.

B1: TPP2009 hIgG1 (antibody, V domains shown)
VH: EVQLLESGGGLVQPGGSLRLSCAASGFTFSAYRMGWVRQAPGKGLEWVSRIYSSGGRTRYADSVKGRFTISRDNSKNTLYLQMNSLRAEDTAVYYCAREKASDLSGSFSEALDYWGQGTLVTVSS
VL: AQSVLTQDPAVSVALGQTVRITCQGDSLRSYYASWYQQKPGQAPVLVIYGKNNRPSGIPDRFSGSSSGNTASLTITGAQAEDEADYYCNSRDSSGNHLVFGGGTKLTVLG
B2: TPP-2016 hIgG (antibody, V domains shown)
VH: EVQLLESGGGLVQPGGSLRLSCAASGFTFSKYRMDWVRQAPGKGLEWVSRIGPSGGKTTYADSVKGRFTISRDNSKNTLYLQMNSLRAEDTAVYYCAREKTSDLSGSYSEALDYWGQGTLVTVSS
VL: DIQMTQSPATLSVSPGERATLSCRASQNINRNLAWYQQKPGRAPRLLIHTASTRAPGVPVRITGSGSGTEFTLTISSLEPEDFAVYFCQQYASPPRTFGQGTKVEIKR
B3: TPP-2019 hIgG (antibody, V domains shown)
VH: EVQLLESGGGLVQPGGSLRLSCAASGFTFSRYAMYWVRQAPGKGLEWVSRISPSGGKTHYADSVKGRFTISRDNSKNTLYLQMNSLRAEDTAVYYCARLSQTGYYPHYHYYGMDVWGQGTTVTVSS
VL: DIQMTQSPATLSLSPGERATLSCRASQRVSSSYLTWYQQKPGQAPRLLIYGASSRATGIPDRFSGSGSGTDFTLTISRLEPEDFAVYYCQQYDSTPPLTFGGGTKVEIKR

Sequence of human antithrombin β complexed with heparin (human ATβH) (P01008 33-464, one chain of several): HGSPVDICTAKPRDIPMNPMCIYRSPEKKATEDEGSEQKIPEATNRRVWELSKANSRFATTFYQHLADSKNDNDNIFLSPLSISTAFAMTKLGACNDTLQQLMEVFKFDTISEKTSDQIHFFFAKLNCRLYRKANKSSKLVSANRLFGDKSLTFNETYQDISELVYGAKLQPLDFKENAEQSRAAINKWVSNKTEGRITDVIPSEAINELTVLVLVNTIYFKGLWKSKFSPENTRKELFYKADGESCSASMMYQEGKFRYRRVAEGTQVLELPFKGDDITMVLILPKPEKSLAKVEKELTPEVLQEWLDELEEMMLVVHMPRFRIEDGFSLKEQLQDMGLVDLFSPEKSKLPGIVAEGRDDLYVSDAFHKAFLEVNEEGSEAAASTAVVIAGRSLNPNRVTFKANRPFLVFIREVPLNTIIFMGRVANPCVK

This experiment concerns the target human antithrombin β complexed with heparin (human ATβH) (human, UniProt P01008 33-464, lacks glycosylation at Asn135 (β glyco-isoform); complexed with heparin). The experiment in a line: Biacore.
In general, Kd refers to the free concentration of one partner at which half of the binding sites on the other are occupied at equilibrium, for simple one-to-one binding. The molecule B1 registered a dissociation constant (Kd) of 11.9 nM. In other words, the double-digit nanomolar range.

In the case of B2, binding was put at a Kd of 18.9 nM. Against the preceding molecule, the Kd is about 1.6-fold higher. Then B3, with 17.2 nM.
